# According to US7132258B1, “Nucleic acid encoding vitamin D receptor related polypeptide” (University of Massachusetts, priority 1998, dated 2006):
# Columns and labels:
# TR (LBD) of hTRβ = target: T1, TR (LBD) of hTRβ (Homo sapiens, UniProt P10828); assay: Yeast two-hybrid interaction with TR; type: binding; details: β-galactosidase ONPG assay, 1 μM ligand or vehicle
# T1 construct: TR (LBD) of hTRβ); expressed in transfected cells; host or cells: Saccharomyces cerevisiae Y190
# T1 sequence (P10828 217-461 limits assumed): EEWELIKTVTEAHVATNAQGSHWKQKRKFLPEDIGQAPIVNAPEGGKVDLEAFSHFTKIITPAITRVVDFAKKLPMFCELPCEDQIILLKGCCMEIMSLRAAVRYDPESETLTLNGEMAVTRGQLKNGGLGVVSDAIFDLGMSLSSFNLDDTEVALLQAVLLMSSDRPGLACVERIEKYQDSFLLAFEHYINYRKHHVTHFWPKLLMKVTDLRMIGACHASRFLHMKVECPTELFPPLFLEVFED
# T1 sequence (Q9Y6Q9 401-1204 E704Q partner limits assumed): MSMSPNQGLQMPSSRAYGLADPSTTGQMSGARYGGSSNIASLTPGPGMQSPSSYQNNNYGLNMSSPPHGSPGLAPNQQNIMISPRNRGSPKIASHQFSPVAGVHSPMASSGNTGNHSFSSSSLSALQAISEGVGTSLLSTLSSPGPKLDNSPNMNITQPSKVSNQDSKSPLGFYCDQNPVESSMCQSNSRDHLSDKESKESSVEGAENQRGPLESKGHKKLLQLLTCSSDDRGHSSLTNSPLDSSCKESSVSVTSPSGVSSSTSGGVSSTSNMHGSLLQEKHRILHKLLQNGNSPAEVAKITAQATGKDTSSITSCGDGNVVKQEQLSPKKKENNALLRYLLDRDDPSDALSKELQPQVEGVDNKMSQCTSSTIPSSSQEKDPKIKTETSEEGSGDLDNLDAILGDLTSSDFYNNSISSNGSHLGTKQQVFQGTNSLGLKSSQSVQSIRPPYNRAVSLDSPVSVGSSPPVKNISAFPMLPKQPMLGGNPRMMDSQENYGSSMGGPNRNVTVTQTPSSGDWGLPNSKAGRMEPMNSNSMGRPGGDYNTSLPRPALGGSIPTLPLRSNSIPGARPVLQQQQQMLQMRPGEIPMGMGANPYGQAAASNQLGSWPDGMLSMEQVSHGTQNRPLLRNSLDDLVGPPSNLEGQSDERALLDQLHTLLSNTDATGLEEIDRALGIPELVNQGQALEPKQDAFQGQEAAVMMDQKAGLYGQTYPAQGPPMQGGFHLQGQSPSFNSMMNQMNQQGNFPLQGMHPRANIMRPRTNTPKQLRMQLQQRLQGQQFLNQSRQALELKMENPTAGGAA
# Experimental: (§1) The protein—protein interactions between RAC3 and several steroid/nuclear receptors were analyzed by the yeast two-hybrid system. The original two-hybrid clone, RAC3.1 in pGAD10 vector, was retransformed together with yeast expression vectors for Gal4 DBD fusion of selected hormone receptor genes into Y190 cells. The receptors used include RAR (full-length hRARα), RXR (full-length hRXRα), VDR (LBD of human Vitamin D receptor), PPAR (LBD of mPPARα), TR (LBD) of hTRβ), COUP (LBD of COUP-TFI). Three independent colonies from each transformation were selected and analyzed for expression of […] activities by liquid ONPG assay (FIG. 6) after treatment with 1 μM of corresponding ligands (closed bars), or with equal concentration of vehicle alone (open bars). […] The ligands used in these experiments were atRA, VitD3 (1,25-dihydroxyvitamin D3), and Wy (Wy 14,642). […] In the absence of ligand, RAC3 can interact with RAR and PPAR.
# [1] = target: T2, human progesterone receptor (hPR) (Homo sapiens, UniProt P06401); assay: Coactivation of hPR on MMTV-LTR luciferase reporter in CV-1 cells; type: cell-based; details: coexpressed RAC3, 100 nM progesterone
# T2 construct: expressed in transfected cells; host or cells: CV-1 monkey kidney cells
# Experimental: In this experiment, transfected cells were treated with or without 100 nM of progesterone at presence or absence of coexpressed RAC3 or SRC-1 in CV-1 cells.
# Thus, RAC3 is a bona fide transcriptional coactivator for mammalian steroid/nuclear hormone receptors.
# [2] = target: T3, VDR (LBD of human Vitamin D receptor) (Homo sapiens, UniProt P11473); assay: Yeast two-hybrid interaction with VDR; type: binding; details: β-galactosidase ONPG assay, 1 μM ligand or vehicle
# T3 construct: VDR (LBD of human Vitamin D receptor); expressed in transfected cells; host or cells: Saccharomyces cerevisiae Y190
# T3 sequence (P11473 127-423 limits assumed): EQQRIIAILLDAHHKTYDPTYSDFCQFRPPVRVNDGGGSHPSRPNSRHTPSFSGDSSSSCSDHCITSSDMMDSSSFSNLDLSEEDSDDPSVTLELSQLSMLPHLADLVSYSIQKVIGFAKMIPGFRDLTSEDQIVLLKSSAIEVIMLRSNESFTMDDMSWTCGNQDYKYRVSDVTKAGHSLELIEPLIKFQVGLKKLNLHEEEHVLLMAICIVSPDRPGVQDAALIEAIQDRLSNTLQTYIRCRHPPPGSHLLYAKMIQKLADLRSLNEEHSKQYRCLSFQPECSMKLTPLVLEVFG
# T3 sequence (Q9Y6Q9 401-1204 E704Q partner limits assumed): T1 sequence (Q9Y6Q9 401-1204 E704Q partner limits assumed)
# Experimental: as §1
# COUP (LBD of COUP-TFI) = target: T4, COUP (LBD of COUP-TFI) (Homo sapiens, UniProt P10589); assay: Yeast two-hybrid interaction with COUP-TFI; type: binding; details: β-galactosidase ONPG assay
# T4 construct: COUP (LBD of COUP-TFI); expressed in transfected cells; host or cells: Saccharomyces cerevisiae Y190
# T4 sequence (P10589 184-410 limits assumed): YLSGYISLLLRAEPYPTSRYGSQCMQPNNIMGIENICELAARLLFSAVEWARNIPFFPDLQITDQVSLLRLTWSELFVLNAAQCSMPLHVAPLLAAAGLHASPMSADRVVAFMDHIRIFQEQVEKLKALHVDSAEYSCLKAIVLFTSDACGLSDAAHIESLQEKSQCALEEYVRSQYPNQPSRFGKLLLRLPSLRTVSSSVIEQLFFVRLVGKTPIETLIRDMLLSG
# Experimental: as §1
# RAR (full-length hRARα) = target: T5, RAR (full-length hRARα) (Homo sapiens, UniProt P10276); assay: Yeast two-hybrid interaction with RAR; type: binding; details: β-galactosidase ONPG assay, 1 μM ligand or vehicle
# T5 construct: RAR (full-length hRARα); expressed in transfected cells; host or cells: Saccharomyces cerevisiae Y190
# T5 sequence (P10276 1-462): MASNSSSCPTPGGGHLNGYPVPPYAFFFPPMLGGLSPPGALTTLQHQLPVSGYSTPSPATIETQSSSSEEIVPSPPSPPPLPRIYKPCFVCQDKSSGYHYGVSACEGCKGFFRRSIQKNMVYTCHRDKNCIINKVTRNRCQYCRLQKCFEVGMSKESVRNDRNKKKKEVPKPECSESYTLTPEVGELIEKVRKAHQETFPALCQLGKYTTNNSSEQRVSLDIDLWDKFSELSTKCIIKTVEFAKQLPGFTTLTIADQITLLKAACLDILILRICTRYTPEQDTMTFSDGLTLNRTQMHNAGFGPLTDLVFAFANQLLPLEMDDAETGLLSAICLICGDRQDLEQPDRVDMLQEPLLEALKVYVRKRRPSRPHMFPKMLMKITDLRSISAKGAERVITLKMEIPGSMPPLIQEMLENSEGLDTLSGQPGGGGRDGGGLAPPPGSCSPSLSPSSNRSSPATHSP
# T5 sequence (Q9Y6Q9 401-1204 E704Q partner limits assumed): T1 sequence (Q9Y6Q9 401-1204 E704Q partner limits assumed)
# Experimental: as §1
# T2 sequence (P06401 whole entry): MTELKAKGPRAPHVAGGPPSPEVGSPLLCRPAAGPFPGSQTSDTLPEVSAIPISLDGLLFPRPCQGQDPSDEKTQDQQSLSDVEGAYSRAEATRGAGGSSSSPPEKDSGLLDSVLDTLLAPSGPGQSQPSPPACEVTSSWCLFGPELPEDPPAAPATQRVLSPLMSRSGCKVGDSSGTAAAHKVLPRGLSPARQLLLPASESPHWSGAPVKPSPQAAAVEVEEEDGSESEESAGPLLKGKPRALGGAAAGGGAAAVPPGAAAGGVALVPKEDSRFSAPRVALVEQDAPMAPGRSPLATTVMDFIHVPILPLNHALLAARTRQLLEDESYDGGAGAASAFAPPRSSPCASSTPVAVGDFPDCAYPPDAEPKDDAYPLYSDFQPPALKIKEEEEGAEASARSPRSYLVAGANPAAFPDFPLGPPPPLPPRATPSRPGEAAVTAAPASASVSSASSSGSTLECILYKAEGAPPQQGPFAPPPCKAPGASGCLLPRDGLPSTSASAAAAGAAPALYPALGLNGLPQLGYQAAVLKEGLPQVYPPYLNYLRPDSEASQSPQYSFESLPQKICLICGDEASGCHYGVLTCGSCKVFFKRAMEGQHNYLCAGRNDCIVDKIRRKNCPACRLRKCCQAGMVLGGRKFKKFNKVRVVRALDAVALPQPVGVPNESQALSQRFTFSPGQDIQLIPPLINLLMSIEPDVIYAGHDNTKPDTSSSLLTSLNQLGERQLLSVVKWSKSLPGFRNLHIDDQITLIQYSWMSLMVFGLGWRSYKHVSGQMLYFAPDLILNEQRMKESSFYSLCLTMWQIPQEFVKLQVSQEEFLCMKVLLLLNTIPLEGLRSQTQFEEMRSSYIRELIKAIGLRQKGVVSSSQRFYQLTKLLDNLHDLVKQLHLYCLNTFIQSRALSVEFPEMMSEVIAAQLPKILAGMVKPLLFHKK
# T2 sequence (Q9Y6Q9 with tags, fused parts or gaps isoform Q9Y6Q9-5 D131E/G132A/T187P/E704Q/DEL1268-1272 partner): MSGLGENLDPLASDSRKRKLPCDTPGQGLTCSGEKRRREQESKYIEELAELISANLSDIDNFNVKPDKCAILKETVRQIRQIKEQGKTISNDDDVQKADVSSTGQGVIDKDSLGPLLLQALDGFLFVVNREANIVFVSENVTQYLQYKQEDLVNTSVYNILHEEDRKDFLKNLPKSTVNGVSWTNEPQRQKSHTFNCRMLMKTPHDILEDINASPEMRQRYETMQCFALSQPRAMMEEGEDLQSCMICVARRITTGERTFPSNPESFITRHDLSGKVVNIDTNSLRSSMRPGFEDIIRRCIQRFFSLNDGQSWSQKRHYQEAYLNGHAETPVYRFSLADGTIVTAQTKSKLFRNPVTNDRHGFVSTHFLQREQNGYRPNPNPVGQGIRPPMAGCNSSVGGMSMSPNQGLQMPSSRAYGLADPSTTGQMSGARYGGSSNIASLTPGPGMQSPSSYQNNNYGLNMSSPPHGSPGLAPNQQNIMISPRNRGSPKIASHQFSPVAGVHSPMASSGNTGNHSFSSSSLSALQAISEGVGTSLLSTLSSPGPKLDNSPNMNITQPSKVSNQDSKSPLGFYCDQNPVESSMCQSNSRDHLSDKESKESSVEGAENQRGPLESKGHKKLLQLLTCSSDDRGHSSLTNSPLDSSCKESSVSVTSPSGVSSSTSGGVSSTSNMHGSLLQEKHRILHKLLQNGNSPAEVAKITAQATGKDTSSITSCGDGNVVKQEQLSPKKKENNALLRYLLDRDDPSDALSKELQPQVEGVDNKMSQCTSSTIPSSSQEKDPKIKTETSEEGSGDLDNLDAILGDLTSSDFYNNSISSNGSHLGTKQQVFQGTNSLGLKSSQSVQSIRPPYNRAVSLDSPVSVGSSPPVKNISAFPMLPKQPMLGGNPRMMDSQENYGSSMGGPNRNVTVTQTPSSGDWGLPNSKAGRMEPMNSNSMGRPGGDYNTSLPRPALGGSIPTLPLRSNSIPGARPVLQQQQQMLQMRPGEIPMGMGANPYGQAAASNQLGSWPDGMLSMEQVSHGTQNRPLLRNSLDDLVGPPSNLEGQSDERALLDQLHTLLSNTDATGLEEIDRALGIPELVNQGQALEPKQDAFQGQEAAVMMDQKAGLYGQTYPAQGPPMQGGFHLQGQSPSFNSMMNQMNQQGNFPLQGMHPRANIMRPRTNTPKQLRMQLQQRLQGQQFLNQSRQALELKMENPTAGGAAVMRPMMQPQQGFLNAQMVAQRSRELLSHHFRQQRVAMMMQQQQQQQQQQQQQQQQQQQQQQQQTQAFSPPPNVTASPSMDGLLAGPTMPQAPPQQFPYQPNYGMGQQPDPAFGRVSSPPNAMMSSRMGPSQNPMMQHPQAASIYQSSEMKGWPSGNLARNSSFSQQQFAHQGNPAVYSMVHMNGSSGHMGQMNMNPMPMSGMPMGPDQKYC
substance,measurement,setting,value
"RAC3: transcriptional coactivator of steroid/nuclear receptors, protein of about 1417 amino acids (SEQ ID NO:2); RAC3.1 is the two-hybrid clone, amino acids 401–1204",interaction with TR,TR (LBD) of hTRβ,ligand-dependent manner
same,transcriptional activation by PR on the MMTV-LTR promoter,[1],enhanced transcriptional activation
same,interaction with VDR,[2],ligand-dependent manner
same,interaction with COUP-TFI,COUP (LBD of COUP-TFI),did not interact
same,interaction with RAR,RAR (full-length hRARα),Ligand treatment enhanced these interactions
